Data as given in patent US20070031907A1, “Anaplastic lymphoma kinase assay, reagents and compositions thereof” (Istituto Nazionale Per Lo Studio E La Cura Dei Tumori, priority 2003, published 2007).

Substrate: CC[C@H](C)[C@H](NC(=O)[C@H](CC(=O)O)NC(=O)[C@H](CCCNC(=N)N)NC(=O)[C@H](C)N)C(=O)N[C@@H](Cc1ccc(O)cc1)C(=O)N[C@@H](CCCNC(=N)N)C(=O)N[C@@H](C)C(=O)N[C@@H](CO)C(=O)N[C@@H](Cc1ccccc1)C(=O)N[C@@H](Cc1ccccc1)C(=O)N[C@@H](CCCNC(=N)N)C(=O)N[C@@H](CCCCN)C(=O)NCC(=O)NCC(=O)N[C@@H](CS)C(=O)N[C@@H](C)C(=O)N[C@@H](CCSC)C(=O)N[C@@H](CC(C)C)C(=O)N1CCC[C@H]1C(=O)N[C@H](C(=O)N[C@@H](CCCCN)C(=O)O)C(C)C
Assay: Peptide phosphorylation (radioactive assay) with rALK
Assay type: biochemical, human
Conditions: other: kinetic constants for rALK with synthetic peptides as substrate; pH 7.5; 30.0 °C
Protocol: The reactions were terminated after 10 min of incubation at 30° C. by spotting 25 μl of the mixture onto P81 phosphocellulose papers, which were processed as described elsewhere (1). Kinetic constants were determined by GraphPad Prism software fitting the data directly to the Michaelis-Menten equation using nonlinear regression.

B1: rALK (ALK catalytic domain, Leu1073 to Ala1459) (Homo sapiens) (protein)
chain: LQSPEYKLSKLRTSTIMTDYNPNYCFAGKTSSISDLKEVPRKNITLIRGLGHGAFGEVYEGQVSGMPNDPSPLQVAVKTLPEVCSEQDELDFLMEALIISKFNHQNIVRCIGVSLQSLPRFILLELMAGGDLKSFLRETRPRPSQPSSLAMLDLLHVARDIACGCQYLEENHFIHRDIAARNCLLTCPGPGRVAKIGDFGMARDIYRASYYRKGGCAMLPVKWMPPEAFMEGIFTSKTDTWSFGVLLWEIFSLGYMPYPSKSNQEVLEFVTSGGRMDPPKNCPGPVYRIMTQCWQHQPEDRPNFAIILERIEYCTQDPDVINTALPIEYGPLVEEEEKVPVRPKDPEGVPPLLVSQQAKREEERSPAAPPPLPTTSSGKAAKKPTAA
notes: A portion of ALK, stretching from amino acids Leu^1073 to Ala^1459, has been cloned into the baculovirus transfer vector; made in house; host or cells: Sf9 (Spodoptera frugiperda) insect cells, baculovirus (pBlueBacHis2C, MaxBac 2.0)
Km: 109.4 µM
Vmax: 0.000186 µmol/min
